Reference: article PMC3416868, “The Fission Yeast GATA Factor, Gaf1, Modulates Sexual Development via Direct Down-Regulation of ste11+ Expression in Response to Nitrogen Starvation”

Assays:
[1] = biological target: T1, GST-Gaf1 (Schizosaccharomyces pombe (972?)) (UniProt Q10280); test: competition; settings: 10 mM Tris pH 7.5, 2 mM MgCl2, 50 mM NaCl, 1 mM DTT, 5% glycerol, 2 ug poly(dI-dC) in 20 ul, room temperature, 20 min; 6% native PAGE
T1 sequence: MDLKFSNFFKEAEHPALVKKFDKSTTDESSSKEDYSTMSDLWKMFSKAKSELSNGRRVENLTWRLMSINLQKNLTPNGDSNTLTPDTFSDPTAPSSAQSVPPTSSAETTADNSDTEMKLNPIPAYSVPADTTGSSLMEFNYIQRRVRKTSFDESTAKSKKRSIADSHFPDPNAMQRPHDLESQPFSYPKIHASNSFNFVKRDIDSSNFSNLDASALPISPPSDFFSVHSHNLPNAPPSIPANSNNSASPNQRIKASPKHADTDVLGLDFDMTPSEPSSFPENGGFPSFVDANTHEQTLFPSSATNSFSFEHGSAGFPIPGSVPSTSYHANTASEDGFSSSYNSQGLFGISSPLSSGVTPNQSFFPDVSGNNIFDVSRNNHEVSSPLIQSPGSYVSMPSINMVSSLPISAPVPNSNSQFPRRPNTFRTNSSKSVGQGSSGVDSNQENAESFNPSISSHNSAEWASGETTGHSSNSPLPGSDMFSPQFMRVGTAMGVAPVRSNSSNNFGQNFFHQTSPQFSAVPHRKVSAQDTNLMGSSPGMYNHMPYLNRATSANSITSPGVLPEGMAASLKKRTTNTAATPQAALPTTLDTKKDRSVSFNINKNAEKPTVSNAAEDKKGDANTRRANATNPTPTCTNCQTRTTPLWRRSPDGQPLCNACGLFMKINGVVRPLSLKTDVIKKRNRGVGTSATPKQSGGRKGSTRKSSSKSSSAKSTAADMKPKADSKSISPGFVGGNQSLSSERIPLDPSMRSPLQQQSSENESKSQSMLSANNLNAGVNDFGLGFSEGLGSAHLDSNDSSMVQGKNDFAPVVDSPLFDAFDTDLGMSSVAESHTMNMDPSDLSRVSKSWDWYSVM

[2] = biological target: T2, GST-Gaf1 (Schizosaccharomyces pombe, UniProt Q10280 1-855); test: competition; cold PW, 100-fold, against labeled PA; 10 mM Tris pH 7.5, 2 mM MgCl2, 50 mM NaCl, 1 mM DTT, 5% glycerol, 2 ug poly(dI-dC) in 20 ul, room temperature, 20 min; 6% native PAGE; settings: protein: recombinant; tags: N-terminal GST (pGEX4T3); label: 32P 5'-end (probe); blunt
T2 sequence: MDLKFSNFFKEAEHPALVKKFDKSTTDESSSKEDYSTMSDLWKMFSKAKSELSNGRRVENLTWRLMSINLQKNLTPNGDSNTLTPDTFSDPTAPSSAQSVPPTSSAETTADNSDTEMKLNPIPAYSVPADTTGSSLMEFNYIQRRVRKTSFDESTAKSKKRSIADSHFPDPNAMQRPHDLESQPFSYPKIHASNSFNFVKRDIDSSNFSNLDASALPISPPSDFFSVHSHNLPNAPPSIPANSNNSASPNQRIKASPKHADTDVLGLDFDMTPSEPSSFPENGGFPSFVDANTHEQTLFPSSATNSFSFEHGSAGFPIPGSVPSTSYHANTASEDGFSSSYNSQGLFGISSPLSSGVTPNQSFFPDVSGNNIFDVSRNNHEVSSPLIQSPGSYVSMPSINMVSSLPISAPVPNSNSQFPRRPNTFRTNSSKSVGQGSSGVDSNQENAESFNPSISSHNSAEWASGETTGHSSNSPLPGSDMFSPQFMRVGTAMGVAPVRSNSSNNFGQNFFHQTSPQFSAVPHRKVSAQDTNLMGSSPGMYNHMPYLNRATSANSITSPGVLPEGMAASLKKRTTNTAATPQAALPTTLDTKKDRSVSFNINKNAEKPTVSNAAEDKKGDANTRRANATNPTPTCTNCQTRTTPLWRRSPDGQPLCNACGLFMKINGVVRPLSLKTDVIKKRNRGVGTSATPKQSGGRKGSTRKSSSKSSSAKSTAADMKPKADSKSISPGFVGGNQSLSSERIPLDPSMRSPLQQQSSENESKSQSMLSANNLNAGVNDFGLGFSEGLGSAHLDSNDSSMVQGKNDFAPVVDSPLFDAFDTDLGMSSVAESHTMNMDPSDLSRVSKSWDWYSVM

[3] = biological target: T2, GST-Gaf1; test: competition; cold PM, 100-fold, against labeled PA; 10 mM Tris pH 7.5, 2 mM MgCl2, 50 mM NaCl, 1 mM DTT, 5% glycerol, 2 ug poly(dI-dC) in 20 ul, room temperature, 20 min; 6% native PAGE; settings: protein: recombinant; tags: N-terminal GST (pGEX4T3); label: 32P 5'-end (probe)

GGATATCCTTTTAATATATGCTAAATGAATAGATTCTCACTATGTAAGTCACCAGGTATGTATGTATATATATATATATATACATACGCATTGGCAACCAACTAGTAAGAGTATAGAGCGAGGCGTAATACGCGATGTTACTGACAATGAAAATCAAACAAAGAAATTCAACTTTTTTAAGTCTAGCCAAAATGTGTATGAGGGGAAGGGACAAAATTCACAGGGGTTAAAGTAACATATG (double strand) [PB]
binding [1]: no binding

B1: PW (dsDNA)
DNA 1: CATTTTGCCTTGCGCTATCTCCCTCAACGAAAAG
DNA 2: CTTTTCGTTGAGGGAGATAGCGCAAGGCAAAATG
binding result [2]: binds

B2: PM (dsDNA)
DNA 1: CATTTTGCCTTGCGCATTGTCCCTCAACGAAAAG
DNA 2: CTTTTCGTTGAGGGACAATGCGCAAGGCAAAATG
binding result [3]: no binding
